Experiments:
[1] = tested on: HeLa Kyoto; experiment: solubility in G1/S (NP-40 vs SDS abundance) (log2 ratio); higher = more soluble; conditions: cell cycle stage: G1/S
[2] = tested on: HeLa Kyoto; experiment: melting temperature (median over replicates), in situ; higher = more thermally stable
[3] = tested on: HeLa Kyoto; experiment: solubility change mitosis vs G1/S (difference of NP-40 vs SDS log2 ratios) (log2 ratio difference); higher = more soluble in mitosis
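Wherever melting temperature (median over replicates), in situ is given: HeLa Kyoto cells synchronized by double thymidine or nocodazole block, proteins quantified by TMT10plex mass spectrometry, three independent biological replicates.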
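Wherever solubility change mitosis vs G1/S (difference of NP-40 vs SDS log2 ratios) is given: synchronized HeLa Kyoto cells (double thymidine block for G1/S, nocodazole release for mitosis), protein amounts in NP-40 versus SDS lysates quantified by mass spectrometry, three biological replicates.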
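Wherever solubility in G1/S (NP-40 vs SDS abundance) is given: HeLa Kyoto cells arrested at G1/S by double thymidine block, proteins quantified by TMT10plex mass spectrometry in mild NP-40 versus SDS extracts, three biological replicates.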

| Sequence | solubility in G1/S (log2) [1] | melting temperature ([2]; cell cycle stage: G1/S) [°C] | melting temperature ([2]; cell cycle stage: mitosis) [°C] | solubility change mitosis (log2) [3] |
| --- | --- | --- | --- | --- |
| MAAQPPRGIRLSALCPKFLHTNSTSHTWPFSAVAELIDNAYDPDVNAKQIWIDKTVINDHICLTFTDNGNGMTSDKLHKMLSFGFSDKVTMNGHVPVGLYGNGFKSGSMRLGKDAIVFTKNGESMSVGLLSQTYLEVIKAEHVVVPIVAFNKHRQMINLAESKASLAAILEHSLFSTEQKLLAELDAIIGKKGTRIIIWNLRSYKNATEFDFEKDKYDIRIPEDLDEITGKKGYKKQERMDQIAPESDYSLRAYCSILYLKPRMQIILRGQKVKTQLVSKSLAYIERDVYRPKFLSKTVRITFGFNCRNKDHYGIMMYHRNRLIKAYEKVGCQLRANNMGVGVVGIIECNFLKPTHNKQDFDYTNEYRLTITALGEKLNDYWNEMKVKKNTEYPLNLPVEDIQKRPDQTWVQCDACLKWRKLPDGMDQLPEKWYCSNNPDPQFRNCEVPEEPEDEDLVHPTYEKTYKKTNKEKFRIRQPEMIPRINAELLFRPTALSTPSFSSPKESVPRRHLSEGTNSYATRLLNNHQVPPQSEPESNSLKRRLSTRSSILNAKNRRLSSQFENSVYKGDDDDEDVIILEENSTPKPAVDHDIDMKSEQSHVEQGGVQVEFVGDSEPCGQTGSTSTSSSRCDQGNTAATQTEVPSLVVKKEETVEDEIDVRNDAVILPSCVEAEAKIHETQETTDKSADDAGCQLQELRNQLLLVTEEKENYKRQCHMFTDQIKVLQQRILEMNDKYVKKETCHQSTETDAVFLLESINGKSESPDHMVSQYQQALEEIERLKKQCSALQHVKAECSQCSNNESKSEMDEMAVQLDDVFRQLDKCSIERDQYKSEVELLEMEKSQIRSQCEELKTEVEQLKSTNQQTATDVSTSSNIEESVNHMDGESLKLRSLRVNVGQLLAMIVPDLDLQQVNYDVDVVDEILGQVVEQMSEISST [MORC3] | -0.0527 | 48.7 | 49.6 | -0.206 |
| MAASRSTRVTRSTVGLNGLDESFCGRTLRNRSIAHPEEISSNSQVRSRSPKKRPEPVPIQKGNNNGRTTDLKQQSTRESWVSPRKRGLSSSEKDNIERQAIENCERRQTEPVSPVLKRIKRCLRSEAPNSSEEDSPIKSDKESVEQRSTVVDNDADFQGTKRACRCLILDDCEKREIKKVNVSEEGPLNSAVVEEITGYLAVNGVDDSDSAVINCDDCQPDGNTKQNSIGSYVLQEKSVAENGDTDTQTSMFLDSRKEDSYIDHKVPCTDSQVQVKLEDHKIVTACLPVEHVNQLTTEPATGPFSETQSSLRDSEEEVDVVGDSSASKEQCKENTNNELDTSLESMPASGEPEPSPVLDCVSAQMMSLSEPQEHRYTLRTSPRRAAPTRGSPTKNSSPYRENGQFEENNLSPNETNATVSDNVSQSPTNPGEISQNEKGICCDSQNNGSEGVSKPPSEARLNIGHLPSAKESASQHITEEEDDDPDVYYFESDHVALKHNKDYQRLLQTIAVLEAQRSQAVQDLESLGRHQREALKNPIGFVEKLQKKADIGLPYPQRVVQLPEIVWDQYTHSLGNFEREFKNRKRHTRRVKLVFDKVGLPARPKSPLDPKKDGESLSYSMLPLSDGPEGSSSRPQMIRGRLCDDTKPETFNQLWTVEEQKKLEQLLIKYPPEEVESRRWQKIADELGNRTAKQVASRVQKYFIKLTKAGIPVPGRTPNLYIYSKKSSTSRRQHPLNKHLFKPSTFMTSHEPPVYMDEDDDRSCFHSHMNTAVEDASDDESIPIMYRNLPEYKELLQFKKLKKQKLQQMQAESGFVQHVGFKCDNCGIEPIQGVRWHCQDCPPEMSLDFCDSCSDCLHETDIHKEDHQLEPIYRSETFLDRDYCVSQGTSYNYLDPNYFPANR [ZZZ3] | -0.198 | 48.9 | 49.1 | 0.273 |
| MADKPDMGEIASFDKAKLKKTETQEKNTLPTKETIEQEKRSEIS [TMSB10] | -1.37 | 53.8 |  | 0.336 |
| MADSSPALSLREGGPRAPRPSAPSPPPRSRSGSESEEAELSLSLARTKTRSYGSTASVRAPLGAGVIERHVEHRVRAGDTLQGIALKYGVTMEQIKRANKLFTNDCIFLKKTLNIPVISEKPLLFNGLNSIDSPENETADNSFSQEEEPVVAGEDLPPPSPQESDVQPVQPEEVSARDFLQRLDLQIKLSTQAAKKLKEESRDEESPYATSLYHS [LYSMD2] | 0.0316 | 52 | 51.8 | -0.0367 |
| MADYWKSQPKKFCDYCKCWIADNRPSVEFHERGKNHKENVAKRISEIKQKSLDKAKEEEKASKEFAAMEAAALKAYQEDLKRLGLESEILEPSITPVTSTIPPTSTSNQQKEKKEKKKRKKDPSKGRWVEGITSEGYHYYYDLISGASQWEKPEGFQGDLKKTAVKTVWVEGLSEDGFTYYYNTETGESRWEKPDDFIPHTSDLPSSKVNENSLGTLDESKSSDSHSDSDGEQEAEEGGVSTETEKPKIKFKEKNKNSDGGSDPETQKEKSIQKQNSLGSNEEKSKTLKKSNPYGEWQEIKQEVESHEEVDLELPSTENEYVSTSEADGGGEPKVVFKEKTVTSLGVMADGVAPVFKKRRTENGKSRNLRQRGDDQ [WBP4] | -0.703 |  | 54.7 | 0.763 |
| MAEAGTGEPSPSVEGEHGTEYDTLPSDTVSLSDSDSDLSLPGGAEVEALSPMGLPGEEDSGPDEPPSPPSGLLPATVQPFHLRGMSSTFSQRSRDIFDCLEGAARRAPSSVAHTSMSDNGGFKRPLAPSGRSPVEGLGRAHRSPASPRVPPVPDYVAHPERWTKYSLEDVTEVSEQSNQATALAFLGSQSLAAPTDCVSSFNQDPSSCGEGRVIFTKPVRGVEARHERKRVLGKVGEPGRGGLGNPATDRGEGPVELAHLAGPGSPEAEEWGSHHGGLQEVEALSGSVHSGSVPGLPPVETVGFHGSRKRSRDHFRNKSSSPEDPGAEV [TSSC4] | 0.167 | 51 | 50.5 | 0.0166 |
| MAENREPRGAVEAELDPVEYTLRKRLPSRLPRRPNDIYVNMKTDFKAQLARCQKLLDGGARGQNACSEIYIHGLGLAINRAINIALQLQAGSFGSLQVAANTSTVELVDELEPETDTREPLTRIRNNSAIHIRVFRVTPK [POP7] | 0.19 |  | 54.9 | -0.0753 |
| MAERGRKRPCGPGEHGQRIEWRKWKQQKKEEKKKWKDLKLMKKLERQRAQEEQAKRLEEEEAAAEKEDRGRPYTLSVALPGSILDNAQSPELRTYLAGQIARACAIFCVDEIVVFDEEGQDAKTVEGEFTGVGKKGQACVQLARILQYLECPQYLRKAFFPKHQDLQFAGLLNPLDSPHHMRQDEESEFREGIVVDRPTRPGHGSFVNCGMKKEVKIDKNLEPGLRVTVRLNQQQHPDCKTYHGKVVSSQDPRTKAGLYWGYTVRLASCLSAVFAEAPFQDGYDLTIGTSERGSDVASAQLPNFRHALVVFGGLQGLEAGADADPNLEVAEPSVLFDLYVNTCPGQGSRTIRTEEAILISLAALQPGLIQAGARHT [C9ORF114] | -1.68 |  | 51.8 | 0.696 |
| MAEYLASIFGTEKDKVNCSFYFKIGACRHGDRCSRLHNKPTFSQTIALLNIYRNPQNSSQSADGLRCAVSDVEMQEHYDEFFEEVFTEMEEKYGEVEEMNVCDNLGDHLVGNVYVKFRREEDAEKAVIDLNNRWFNGQPIHAELSPVTDFREACCRQYEMGECTRGGFCNFMHLKPISRELRRELYGRRRKKHRSRSRSRERRSRSRDRGRGGGGGGGGGGGGRERDRRRSRDRERSGRF [U2AF1] | -0.457 | 46.8 | 48.2 | 0.342 |
| MAFWCQRDSYAREFTTTVVSCCPAELQTEGSNGKKEVLSGFQVVLEDTVLFPEGGGQPDDRGTINDISVLRVTRRGEQADHFTQTPLDPGSQVLVRVDWERRFDHMQQHSGQHLITAVADHLFKLKTTSWELGRFRSAIELDTPSMTAEQVAAIEQSVNEKIRDRLPVNVRELSLDDPEVEQVSGRGLPDDHAGPIRVVNIEGVDSNMCCGTHVSNLSDLQVIKILGTEKGKKNRTNLIFLSGNRVLKWMERSHGTEKALTALLKCGAEDHVEAVKKLQNSTKILQKNNLNLLRDLAVHIAHSLRNSPDWGGVVILHRKEGDSEFMNIIANEIGSEETLLFLTVGDEKGGGLFLLAGPPASVETLGPRVAEVLEGKGAGKKGRFQGKATKMSRRMEAQALLQDYISTQSAKE [AARSD1] | 0.18 | 49.8 | 49.9 | -0.0164 |
| MAGQHLPVPRLEGVSREQFMQHLYPQRKPLVLEGIDLGPCTSKWTVDYLSQVGGKKEVKIHVAAVAQMDFISKNFVYRTLPFDQLVQRAAEEKHKEFFVSEDEKYYLRSLGEDPRKDVADIRKQFPLLKGDIKFPEFFKEEQFFSSVFRISSPGLQLWTHYDVMDNLLIQVTGKKRVVLFSPRDAQYLYLKGTKSEVLNIDNPDLAKYPLFSKARRYECSLEAGDVLFIPALWFHNVISEEFGVGVNIFWKHLPSECYDKTDTYGNKDPTAASRAAQILDRALKTLAELPEEYRDFYARRMVLHIQDKAYSKNSE [TYW5] | -0.0115 | 53.8 | 53.8 | -0.114 |
| MAICQFFLQGRCRFGDRCWNEHPGARGAGGGRQQPQQQPSGNNRRGWNTTSQRYSNVIQPSSFSKSTPWGGSRDQEKPYFSSFDSGASTNRKEGFGLSENPFASLSPDEQKDEKKLLEGIVKDMEVWESSGQWMFSVYSPVKKKPNISGFTDISPEELRLEYHNFLTSNNLQSYLNSVQRLINQWRNRVNELKSLNISTKVALLSDVKDGVNQAAPAFGFGSSQAATFMSPGFPVNNSSSDNAQNFSFKTNSGFAAASSGSPAGFGSSPAFGAAASTSSGISTSAPAFGFGKPEVTSAASFSFKSPAASSFGSPGFSGLPASLATGPVRAPVAPAFGGGSSVAGFGSPGSHSHTAFSKPSSDTFGNSSISTSLSASSSIIATDNVLFTPRDKLTVEELEQFQSKKFTLGKIPLKPPPLELLNV [NUPL2] | -0.304 |  | 51.7 | 0.326 |
| MALFPAFAGLSEAPDGGSSRKELDWLSNPSFCVGSITSLSQQTEAAPAHVSEGLPLTRSHLKSESSDESDTNKKLKQTSRKKKKEKKKKRKHQHHKKTKRKHGPSSSSRSETDTDSEKDKPSRGVGGSKKESEEPNQGNNAAADTGHRFVWLEDIQAVTGETFRTDKKPDPANWEYKSLYRGDIARYKRKGDSCLGINPKKQCISWEGTSTEKKHSRKQVERYFTKKSVGLMNIDGVAISSKTEPPSSEPISFIPVKDLEDAAPVTTWLNPLGIYDQSTTHWLQGQGPPEQESKQPDAQPDSESAALKAKVEEFNRRVRENPRDTQLWMAFVAFQDEVMKSPGLYAIEEGEQEKRKRSLKLILEKKLAILERAIESNQSSVDLKLAKLKLCTEFWEPSTLVKEWQKLIFLHPNNTALWQKYLLFCQSQFSTFSISKIHSLYGKCLSTLSAVKDGSILSHPALPGTEEAMFALFLQQCHFLRQAGHSEKAISLFQAMVDFTFFKPDSVKDLPTKGQVEFFEPFWDSGEPRAGEKGARGWKAWMHQQERGGWVVINPDEDDDEPEEDDQEIKDKTLPRWQIWLAAERSRDQRHWRPWRPDKTKKQTEEDCEDPERQVLFDDIGQSLIRLSSHDLQFQLVEAFLQFLGVPSGFTPPASCLYLAMDENSIFDNGLYDEKPLTFFNPLFSGASCVGRMDRLGYPRWTRGQNREGEEFIRNVFHLVMPLFSGKEKSQLCFSWLQYEIAKVIWCLHTKNKKRLKSQGKNCKKLAKNLLKEPENCNNFCLWKQYAHLEWLLGNTEDARKVFDTALGMAGSRELKDSDLCELSLLYAELEVELSPEVRRAATARAVHILTKLTESSPYGPYTGQVLAVHILKARKAYEHALQDCLGDSCVSNPAPTDSCSRLISLAKCFMLFQYLTIGIDAAVQIYEQVFAKLNSSVFPEGSGEGDSASSQSWTSVLEAITLMHTSLLRFHMKVSVYPLAPLREALSQALKLYPGNQVLWRSYVQIQNKSHSASKTRRFFDTITRSAKPLEPWLFAIEAEKLRKRLVETVQRLDGREIHATIPETGLMHRIQALFENAMRSDSGSQCPLLWRMYLNFLVSLGNKERSKGVFYKALQNCPWAKVLYLDAVEYFPDEMQEILDLMTEKELRVRLPLEELELLLED [NRDE2] | -0.208 | 48.5 | 49 | -0.031 |

From the supplement of paper PMC5998384
